According to patent US20260092116A1 (DARTSBIO PHARMACEUTICALS, published 2026):

T1: his-tagged human B7H3 antigen protein (human, UniProt Q5ZPR3 29-461, limits assumed)
T1 construct: also called B7H3-his; CD276; not shown: his tag
T1 sequence (looked up): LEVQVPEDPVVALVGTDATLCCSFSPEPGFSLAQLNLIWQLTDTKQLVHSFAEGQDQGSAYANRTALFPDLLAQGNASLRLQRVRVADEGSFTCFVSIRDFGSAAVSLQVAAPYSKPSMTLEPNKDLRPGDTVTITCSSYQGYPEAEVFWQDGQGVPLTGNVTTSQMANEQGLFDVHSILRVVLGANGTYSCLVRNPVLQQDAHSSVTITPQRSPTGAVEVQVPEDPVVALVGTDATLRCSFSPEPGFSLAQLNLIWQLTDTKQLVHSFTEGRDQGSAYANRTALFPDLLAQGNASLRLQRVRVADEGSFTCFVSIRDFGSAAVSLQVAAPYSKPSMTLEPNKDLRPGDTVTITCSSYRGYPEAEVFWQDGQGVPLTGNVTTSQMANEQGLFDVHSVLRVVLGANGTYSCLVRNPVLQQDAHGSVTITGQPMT

T2: B7H3 antigen (huB7H3 antigen) (human, UniProt Q5ZPR3 29-461, limits assumed)
T2 sequence (looked up): T1 sequence (looked up)

B1: Enoblituzumab (MGA271) (antibody, V domains shown)
VH: EVQLVESGGGLVQPGGSLRLSCAASGFTFSSFGMHWVRQAPGKGLEWVAYISSDSSAIYYADTVKGRFTISRDNAKNSLYLQMNSLRDEDTAVYYCGRGRENIYYGSRLDYWGQGTTVTVSS
VL: DIQLTQSPSFLSASVGDRVTITCKASQNVDTNVAWYQQKPGKAPKALIYSASYRYSGVPSRFSGSGSGTDFTLTISSLQPEDFATYYCQQYNNYPFTFGQGTKLEIKR
B2: B7H3 VHH-Fc (humanized anti-B7H3 VHH 75-16 fused to human Fc) (Fc fusion)
chain: DVQLQESGGGLVQAGGSLRLSCTASGYTLSTIWIGWFRQAPGKGLEGVAAIYIGSGATYYVDSVKGRFTISQDNAKNTVYLQMNSLKPEDTAMYYCAATGGTVGSMVRFSPVGDFGYWGQGTQVTVSS
notes: also called B7H3-Fc; not shown: human Fc fused to the C-terminus of the VHH
B3: B7H3/PDL1 bispecific antibody (bispecific antibody, human IgG1, kappa)
heavy: not shown
light: DIQMTQSPSSLSASVGDRVTISCRASQSINTYLHWYQQKLGQAPRLLIYYASQSISGVPSRFSGSGSGTDFTLTINSLEAEDAATYYCQNGHSFPLTFGAGTKVEIKRTVAAPSVFIFPPSDEQLKSGTASVVCLLNNFYPREAKVQWKVDNALQSGNSQESVTEQDSKDSTYSLSSTLTLSKADYEKHKVYACEVTHQGLSSPVTKSFNRGEC
notes: Anti-PDL1 hIgG1 with one anti-B7H3 VHH (75-16) at the C-terminus of each heavy chain's Fc; also called IgG-VHH2
B4: PDL1 monoclonal antibody (antibody, human IgG1, kappa, V domains shown)
VH: QVQLVQSGAEVKKPGASVKVSCKASGYTFTTFGVHWVRQAPGKGLEWVGIIWPGGNTNYNSALMSRVTITADESTSTAYMELSSLRSEDTAVYYCARENYGRAMDYWGQGTTVTVSS
VL: DIQMTQSPSSLSASVGDRVTISCRASQSINTYLHWYQQKLGQAPRLLIYYASQSISGVPSRFSGSGSGTDFTLTINSLEAEDAATYYCQNGHSFPLTFGAGTKVEIKR
notes: Parental humanized IgG1 of the bispecific antibody; also called PDL1 hIgG1 humanized monoclonal antibody

Experiments:
[1] = biological target: T1, his-tagged human B7H3 antigen protein; test: binding ELISA, plate coated with his-tagged B7H3 at 2 ug/ml
Method: (§1) A 96-well ELISA plate was coated with 2 μg/ml of his-tagged PDL1 or B7H3 antigen protein at 4° C. overnight, and 100 μl of Casein blocking solution was added to each well the next day for blocking at 37° C. for 1 hour. […] After incubation at 37° C. for 1 hour, unbound antibodies were washed off with 0.1% PBST, and bound antibodies were detected using horseradish peroxidase (HRP)-conjugated goat anti-human IgG (H+L) antibody (Jackson ImmunoResearch, USA), and 50 μl of 3,3′,5,5′-tetramethylbenzidine substrate (TMB) was used for color development. After standing for 5 minutes, 50 μl of 2 M sulfuric acid was added to stop the color development, and then the absorbance was detected using a SpectraMax M5e (Molecular Devices) microplate reader at OD450 nm. The antibody concentration was plotted against the OD450 reading using a 4-parameter fitting method, and the EC₅₀ was calculated.

[2] = biological target: T2, B7H3 antigen (huB7H3 antigen); test: BLI, VHH-Fc (100 nM) captured on Protein A probe, B7H3 antigen from 200 nM in 2-fold dilutions
Method: The above phage clones were sequenced to obtain the B7H3 VHH gene sequence, and its C-terminus was fused with the human Fc protein gene to construct and express B7H3-Fc. 100nM of B7H3 VHH-Fc was captured by the biolayer interferometry method using the Protein A probe and bound to B7H3 antigen with an initial concentration of 200 nM, a 2-fold dilution. The KD value of the antibody binding to antigen was calculated.

[3] = biological target: T1, his-tagged human B7H3 antigen protein; test: ELISA on coated B7H3-his, bispecific antibody not heat-treated (4°C)
Method: as §1

[4] = biological target: T3, his-tagged human PDL1 antigen protein (human, UniProt Q9NZQ7 19-238); test: ELISA on coated PDL1-his, bispecific antibody not heat-treated (4°C)
T3 construct: also called PDL1-his; not shown: his tag
T3 sequence (Q9NZQ7 19-238 limits assumed): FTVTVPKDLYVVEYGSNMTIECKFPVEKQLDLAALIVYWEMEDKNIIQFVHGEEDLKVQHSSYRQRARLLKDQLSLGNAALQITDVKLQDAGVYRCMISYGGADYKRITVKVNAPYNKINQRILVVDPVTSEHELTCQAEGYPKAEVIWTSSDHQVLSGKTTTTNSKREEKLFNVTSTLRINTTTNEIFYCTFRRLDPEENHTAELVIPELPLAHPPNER
Method: as §1

[5] = biological target: T4, biotinylated PDL1 antigen (human, UniProt Q9NZQ7 19-238, biotinylated (sites not given)); test: flow cytometry, blocking of biotinylated PDL1 (50 nM) binding to CHO-PD1 cells
T4 construct: also called human PDL1 (biotinylated)
T4 sequence (Q9NZQ7 19-238 limits assumed): as above
Method: The mixed solution was then incubated with the cells at 4° C. for 45 minutes, and unbound antigens were washed off with PBS.
The cells were then fluorescently stained with PE-streptavidin. Finally, the mean fluorescence intensity (MFI) of the PE channel in the flow cytometer was read, the antibody concentration was plotted against MFI, and the IC₅₀ of the antibody was calculated using a four-parameter fitting.

[6] = biological target: T1, his-tagged human B7H3 antigen protein; test: BLI (Octet), antibody on Protein A probe, B7H3-his from 200 nM in 2-fold dilutions
Method: (§2) Kon and Koff values were calculated using the software provided by the supplier to obtain the KD value of the antibody.

[7] = biological target: T3, his-tagged human PDL1 antigen protein; test: BLI (Octet), antibody on Protein A probe, PDL1-his from 200 nM in 2-fold dilutions
Method: as §2

[8] = biological target: T3, his-tagged human PDL1 antigen protein; test: binding ELISA, plate coated with his-tagged PDL1 at 2 ug/ml
Method: as §1

[9] = biological target: T3, his-tagged human PDL1 antigen protein; test: ELISA on coated PDL1-his, bispecific antibody after 1 hour at 60°C
Method: as §1

[10] = biological target: T1, his-tagged human B7H3 antigen protein; test: ELISA on coated B7H3-his, bispecific antibody after 1 hour at 60°C
Method: as §1

| Binder | EC50 [1] [nM] | Kd [2] [nM] | EC50 (read off the curve) [3] [nM] | EC50 (read off the curve) [4] [nM] | IC50 [5] [nM] | Kd [6] [nM] | Kd [7] [nM] | EC50 [8] [nM] | EC50 (read off the curve) [9] [nM] | EC50 (read off the curve) [10] [nM] |
| --- | --- | --- | --- | --- | --- | --- | --- | --- | --- | --- |
| B1 | 0.0548 | – | – | – | – | – | – | – | – | – |
| B2 | 0.0251 | 3.24 | – | – | – | – | – | – | – | – |
| B3 | 0.0411 | – | ~0.02 | ~0.04 | 106 | 8.11 | 0.585 | 0.306 | ~0.04 | ~0.02 |
| B4 | – | – | – | – | 94.2 | – | – | 0.441 | – | – |
